Experiments:
LXRb:RXRa = LXRb:RXRa (Homo sapiens, UniProt P55055;P19793 full;full); experiment: no ligand; PBM; 270 nM : 90 nM RXRa; PBS pH 7.4, 2% milk, 0.02% Triton X-100, 1 mM DTT, BSA, 0.4 mg/ml salmon testes DNA; conditions: tags: His kept;His cleaved; copies: 1;1; label: surface-attached array probe
How it was run: (§1)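 Binding z-scores take random background probes as their reference. They come from custom Agilent 4×180K protein-binding microarrays incubated 1 h with ligand-free nuclear receptor dimers, with antibodies against each partner (one per run) detecting binding. Scanned fluorescence was regression-normalized.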

VDR:RXRa = VDR:RXRa (Homo sapiens, UniProt P11473;P19793 full;full); experiment: as above; conditions: tags: His kept;His cleaved; copies: 1;1; label: surface-attached array probe
Sequence of VDR:RXRa (P11473 whole entry, chain 1 of 2): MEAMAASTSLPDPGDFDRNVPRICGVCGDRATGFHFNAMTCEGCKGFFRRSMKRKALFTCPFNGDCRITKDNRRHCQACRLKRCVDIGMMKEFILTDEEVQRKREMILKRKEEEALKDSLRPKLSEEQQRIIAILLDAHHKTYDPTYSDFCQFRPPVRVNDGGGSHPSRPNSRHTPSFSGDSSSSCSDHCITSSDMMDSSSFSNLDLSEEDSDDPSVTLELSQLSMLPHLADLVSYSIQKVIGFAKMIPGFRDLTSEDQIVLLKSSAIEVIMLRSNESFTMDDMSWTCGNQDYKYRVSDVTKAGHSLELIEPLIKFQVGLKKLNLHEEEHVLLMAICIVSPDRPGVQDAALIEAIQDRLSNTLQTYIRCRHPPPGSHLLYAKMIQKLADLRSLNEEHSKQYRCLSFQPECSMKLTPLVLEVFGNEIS
Sequence of VDR:RXRa (P19793 whole entry, chain 2 of 2): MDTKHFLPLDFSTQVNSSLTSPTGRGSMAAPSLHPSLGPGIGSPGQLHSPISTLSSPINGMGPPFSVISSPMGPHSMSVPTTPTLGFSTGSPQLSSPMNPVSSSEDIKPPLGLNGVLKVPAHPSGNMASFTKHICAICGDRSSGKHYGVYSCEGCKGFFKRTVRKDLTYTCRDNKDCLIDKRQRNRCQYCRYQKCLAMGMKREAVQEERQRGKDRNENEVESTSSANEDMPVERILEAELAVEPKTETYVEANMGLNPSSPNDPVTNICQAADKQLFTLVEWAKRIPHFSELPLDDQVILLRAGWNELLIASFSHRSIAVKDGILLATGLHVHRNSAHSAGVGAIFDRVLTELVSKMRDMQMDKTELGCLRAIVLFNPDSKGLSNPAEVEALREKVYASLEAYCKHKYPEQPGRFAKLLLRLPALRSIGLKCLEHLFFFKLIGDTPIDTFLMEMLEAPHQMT
How it was run: as §1

PPARa:RXRa = PPARa:RXRa (Homo sapiens, UniProt Q07869;P19793 full;full); experiment: as above; conditions: tags: GST kept;His cleaved; copies: 1;1; label: surface-attached array probe
Sequence of PPARa:RXRa (Q07869 whole entry, chain 1 of 2): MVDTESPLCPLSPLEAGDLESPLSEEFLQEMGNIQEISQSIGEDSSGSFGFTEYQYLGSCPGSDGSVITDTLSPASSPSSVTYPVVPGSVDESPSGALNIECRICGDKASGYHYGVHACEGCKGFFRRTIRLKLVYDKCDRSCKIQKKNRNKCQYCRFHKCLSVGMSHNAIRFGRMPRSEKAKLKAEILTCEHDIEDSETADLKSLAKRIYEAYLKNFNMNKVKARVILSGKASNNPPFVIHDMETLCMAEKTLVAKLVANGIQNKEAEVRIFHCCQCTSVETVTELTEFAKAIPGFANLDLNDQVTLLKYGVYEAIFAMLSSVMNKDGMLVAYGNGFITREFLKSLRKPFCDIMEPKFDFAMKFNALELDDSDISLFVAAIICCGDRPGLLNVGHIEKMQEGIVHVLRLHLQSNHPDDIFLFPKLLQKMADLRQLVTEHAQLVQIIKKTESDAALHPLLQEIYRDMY
Sequence of PPARa:RXRa (P19793 whole entry, chain 2 of 2): as the sequence (P19793 whole entry, chain 2 of 2) above
How it was run: as §1

LXRa:RXRa = LXRa:RXRa (Homo sapiens, UniProt Q13133;P19793 full;full); experiment: as above; conditions: tags: His kept;His cleaved; copies: 1;1; label: surface-attached array probe
Sequence of LXRa:RXRa (Q13133 whole entry, chain 1 of 2): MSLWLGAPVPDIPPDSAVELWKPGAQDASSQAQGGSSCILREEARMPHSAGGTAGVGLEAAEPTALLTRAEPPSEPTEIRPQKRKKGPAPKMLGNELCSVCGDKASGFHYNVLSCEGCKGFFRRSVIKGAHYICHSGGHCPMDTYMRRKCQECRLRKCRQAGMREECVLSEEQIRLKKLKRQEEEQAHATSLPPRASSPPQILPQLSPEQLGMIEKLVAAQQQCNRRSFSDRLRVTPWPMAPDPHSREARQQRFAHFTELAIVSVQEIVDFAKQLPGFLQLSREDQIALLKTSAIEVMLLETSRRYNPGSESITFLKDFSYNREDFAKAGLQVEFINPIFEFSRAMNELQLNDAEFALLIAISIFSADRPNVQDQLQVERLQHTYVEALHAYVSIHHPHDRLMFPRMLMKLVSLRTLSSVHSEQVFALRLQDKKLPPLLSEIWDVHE
Sequence of LXRa:RXRa (P19793 whole entry, chain 2 of 2): as the sequence (P19793 whole entry, chain 2 of 2) above
How it was run: as §1

RXRa = RXRa (Homo sapiens, UniProt P19793); experiment: no ligand; PBM; 180 nM; PBS pH 7.4, 2% milk, 0.02% Triton X-100, 1 mM DTT, BSA, 0.4 mg/ml salmon testes DNA; conditions: tags: His cleaved; chain copies: 2; label: surface-attached array probe
Sequence of RXRa (P19793 whole entry): as the sequence (P19793 whole entry, chain 2 of 2) above
RARg:RXRa = RARg:RXRa (Homo sapiens, UniProt P13631;P19793 full;full); experiment: no ligand; PBM; 270 nM : 90 nM RXRa; PBS pH 7.4, 2% milk, 0.02% Triton X-100, 1 mM DTT, BSA, 0.4 mg/ml salmon testes DNA; conditions: tags: His kept;His cleaved; copies: 1;1; label: surface-attached array probe
Sequence of RARg:RXRa (P13631 whole entry, chain 1 of 2): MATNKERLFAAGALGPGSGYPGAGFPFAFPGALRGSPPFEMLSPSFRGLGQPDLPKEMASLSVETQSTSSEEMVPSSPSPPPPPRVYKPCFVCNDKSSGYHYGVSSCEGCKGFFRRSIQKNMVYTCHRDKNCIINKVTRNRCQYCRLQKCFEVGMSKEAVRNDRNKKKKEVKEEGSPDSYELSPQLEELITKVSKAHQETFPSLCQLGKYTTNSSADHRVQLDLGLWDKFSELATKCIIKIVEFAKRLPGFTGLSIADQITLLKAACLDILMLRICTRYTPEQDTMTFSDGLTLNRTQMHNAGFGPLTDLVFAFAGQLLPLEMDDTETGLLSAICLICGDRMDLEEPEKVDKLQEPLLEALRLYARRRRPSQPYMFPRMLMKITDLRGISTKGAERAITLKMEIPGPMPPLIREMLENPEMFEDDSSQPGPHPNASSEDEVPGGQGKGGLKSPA
Sequence of RARg:RXRa (P19793 whole entry, chain 2 of 2): as the sequence (P19793 whole entry, chain 2 of 2) above
How it was run: as §1

FXR:RXRa = FXR:RXRa (Homo sapiens, UniProt Q96RI1;P19793 full;full); experiment: as above; conditions: tags: His kept;His cleaved; copies: 1;1; label: surface-attached array probe
Sequence of FXR:RXRa (Q96RI1 whole entry, chain 1 of 2): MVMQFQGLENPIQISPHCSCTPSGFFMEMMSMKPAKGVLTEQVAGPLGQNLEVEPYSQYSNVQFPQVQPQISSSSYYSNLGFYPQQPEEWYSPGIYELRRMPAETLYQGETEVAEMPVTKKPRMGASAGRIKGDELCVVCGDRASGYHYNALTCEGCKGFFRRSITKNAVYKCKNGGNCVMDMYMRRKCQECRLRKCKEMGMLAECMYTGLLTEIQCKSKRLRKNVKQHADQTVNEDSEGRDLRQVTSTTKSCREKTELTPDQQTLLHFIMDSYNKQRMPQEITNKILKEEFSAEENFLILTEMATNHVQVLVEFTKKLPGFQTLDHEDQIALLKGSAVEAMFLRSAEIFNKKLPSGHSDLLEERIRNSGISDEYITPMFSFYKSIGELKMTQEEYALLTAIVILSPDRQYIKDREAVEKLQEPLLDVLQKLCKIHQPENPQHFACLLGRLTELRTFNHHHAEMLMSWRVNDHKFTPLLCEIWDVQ
Sequence of FXR:RXRa (P19793 whole entry, chain 2 of 2): as the sequence (P19793 whole entry, chain 2 of 2) above
How it was run: as §1

Sequence of LXRb:RXRa (P55055 whole entry, chain 1 of 2): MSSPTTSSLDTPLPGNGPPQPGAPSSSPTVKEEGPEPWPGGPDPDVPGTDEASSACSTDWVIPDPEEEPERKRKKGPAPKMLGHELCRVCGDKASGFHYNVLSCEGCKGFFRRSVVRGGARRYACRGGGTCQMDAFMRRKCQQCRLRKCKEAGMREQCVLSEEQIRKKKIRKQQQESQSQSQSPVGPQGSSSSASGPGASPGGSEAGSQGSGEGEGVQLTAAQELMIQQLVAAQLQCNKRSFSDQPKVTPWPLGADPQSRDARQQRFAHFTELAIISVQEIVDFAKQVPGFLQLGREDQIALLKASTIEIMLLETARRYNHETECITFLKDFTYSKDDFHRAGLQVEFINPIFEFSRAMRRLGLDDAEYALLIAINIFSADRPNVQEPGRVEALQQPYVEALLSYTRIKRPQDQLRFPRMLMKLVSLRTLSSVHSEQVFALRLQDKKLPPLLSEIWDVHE
Sequence of LXRb:RXRa (P19793 whole entry, chain 2 of 2): as the sequence (P19793 whole entry, chain 2 of 2) above

Binder | binding signal (LXRb:RXRa) | binding signal (VDR:RXRa) | binding signal (LXRa:RXRa) | other results
NRC3_random_hg19_83_o1 (dsDNA) DNA 1: GCGCTGTACATGATGTGGCCTCCCAGCCCAGGATCTGCGATTGACAGCGTAGAATGAAGG DNA 2: CCTTCATTCTACGCTGTCAATCGCAGATCCTGGGCTGGGAGGCCACATCATGTACAGCGC | -0.83 PBM z-score against 500 random probes | -0.48 PBM z-score against 500 random probes | – | binding signal (PPARa:RXRa): -0.53 PBM z-score against 500 random probes
NRC3_wobSeed73_DR3_A5C_o1 (dsDNA) DNA 1: GCCACACTAGGTCACAGAGGTCAAAGTCCGTGCGTAGCGATTGACAGCGTAGAATGAAGG DNA 2: CCTTCATTCTACGCTGTCAATCGCTACGCACGGACTTTGACCTCTGTGACCTAGTGTGGC | – | – | 7.06 PBM z-score against 500 random probes | –
NRC3_wobSeed21_DR0_C21T_o1 (dsDNA) DNA 1: GCCGTCAAAGTTCAAGGTAATGTAACAGAAAGCAGCGCGATTGACAGCGTAGAATGAAGG DNA 2: CCTTCATTCTACGCTGTCAATCGCGCTGCTTTCTGTTACATTACCTTGAACTTTGACGGC | 3.22 PBM z-score against 500 random probes | 3.72 PBM z-score against 500 random probes | – | –
NRC3_random_hg19_373_o1 (dsDNA) DNA 1: GCTGCCACAGAGGATACTGTGACGTTATGCATCACTGCGATTGACAGCGTAGAATGAAGG DNA 2: CCTTCATTCTACGCTGTCAATCGCAGTGATGCATAACGTCACAGTATCCTCTGTGGCAGC | -0.59 PBM z-score against 500 random probes | -0.23 PBM z-score against 500 random probes | – | –
NRC3_wobSeed116_DR4_C16T_o1 (dsDNA) DNA 1: GCAGAATGAGGTTACTAAAGATCAGGGAAACGCTTGGCGATTGACAGCGTAGAATGAAGG DNA 2: CCTTCATTCTACGCTGTCAATCGCCAAGCGTTTCCCTGATCTTTAGTAACCTCATTCTGC | – | – | 8.1 PBM z-score against 500 random probes | –
NRC3_wobSeed116_DR4_A9G_o1 (dsDNA) DNA 1: GCAGAATGGGGTTACCAAAGATCAGGGAAACGCTTGGCGATTGACAGCGTAGAATGAAGG DNA 2: CCTTCATTCTACGCTGTCAATCGCCAAGCGTTTCCCTGATCTTTGGTAACCCCATTCTGC | – | – | 7.02 PBM z-score against 500 random probes | –
NRC3_wobSeed27_DR1_G24A_o1 (dsDNA) DNA 1: GCACTCGGAGGACAAAGGTCAGAACTACGCCAGTGAGCGATTGACAGCGTAGAATGAAGG DNA 2: CCTTCATTCTACGCTGTCAATCGCTCACTGGCGTAGTTCTGACCTTTGTCCTCCGAGTGC | 3.26 PBM z-score against 500 random probes | 3.2 PBM z-score against 500 random probes | – | –
NRC3_wobSeed101_DR4_G27T_o1 (dsDNA) DNA 1: GCCCTTACGGGTCACTCCAGGTTATATCATCGGAGTGCGATTGACAGCGTAGAATGAAGG DNA 2: CCTTCATTCTACGCTGTCAATCGCACTCCGATGATATAACCTGGAGTGACCCGTAAGGGC | – | – | 8.05 PBM z-score against 500 random probes | –
NRC3_wobSeed130_DR5_T12G_o1 (dsDNA) DNA 1: GCCTCGAAAGGGCGTGCTCAGGTGAGTATACCAAACGCGATTGACAGCGTAGAATGAAGG DNA 2: CCTTCATTCTACGCTGTCAATCGCGTTTGGTATACTCACCTGAGCACGCCCTTTCGAGGC | 0.29 PBM z-score against 500 random probes | – | – | binding signal (RXRa): 0.33 PBM z-score against 500 random probes
NRC3_random_hg19_183_o1 (dsDNA) DNA 1: GCGAGGACAGAGTAGATCAACCTTTCCTACCTCTAAGCGATTGACAGCGTAGAATGAAGG DNA 2: CCTTCATTCTACGCTGTCAATCGCTTAGAGGTAGGAAAGGTTGATCTACTCTGTCCTCGC | -0.11 PBM z-score against 500 random probes | 0.02 PBM z-score against 500 random probes | – | –
NRC3_wobSeed98_DR4_C23A_o1 (dsDNA) DNA 1: GCACTAGTTGGTCAGCTGAGGTAACACACAATTCGGGCGATTGACAGCGTAGAATGAAGG DNA 2: CCTTCATTCTACGCTGTCAATCGCCCGAATTGTGTGTTACCTCAGCTGACCAACTAGTGC | 0.34 PBM z-score against 500 random probes | – | – | binding signal (RXRa): 0.48 PBM z-score against 500 random probes
NRC3_random_hg19_263_o1 (dsDNA) DNA 1: GCGCTGGGTAGATCTGCCACTGAAGCCTACATGGAGGCGATTGACAGCGTAGAATGAAGG DNA 2: CCTTCATTCTACGCTGTCAATCGCCTCCATGTAGGCTTCAGTGGCAGATCTACCCAGCGC | -1.05 PBM z-score against 500 random probes | -0.87 PBM z-score against 500 random probes | – | –
NRC3_wobSeed100_DR4_T22G_o1 (dsDNA) DNA 1: GCCCTACTGGGCCACGAAAGGGCATTGATTCAGTGAGCGATTGACAGCGTAGAATGAAGG DNA 2: CCTTCATTCTACGCTGTCAATCGCTCACTGAATCAATGCCCTTTCGTGGCCCAGTAGGGC | 0.15 PBM z-score against 500 random probes | 0.11 PBM z-score against 500 random probes | – | –
NRC3_wobSeed100_DR4_G16T_o1 (dsDNA) DNA 1: GCCCTACTGGGCCACTAAAGGTCATTGATTCAGTGAGCGATTGACAGCGTAGAATGAAGG DNA 2: CCTTCATTCTACGCTGTCAATCGCTCACTGAATCAATGACCTTTAGTGGCCCAGTAGGGC | – | – | 7.03 PBM z-score against 500 random probes | –
NRC3_wobSeed109_DR4_A19G_o1 (dsDNA) DNA 1: GCCGTCCAAGGTCATAGGGGGTCAGTGAAGACAGATGCGATTGACAGCGTAGAATGAAGG DNA 2: CCTTCATTCTACGCTGTCAATCGCATCTGTCTTCACTGACCCCCTATGACCTTGGACGGC | 7.12 PBM z-score against 500 random probes | 7.46 PBM z-score against 500 random probes | – | binding signal (RARg:RXRa): 7.6 PBM z-score against 500 random probes; binding signal (FXR:RXRa): 8.21 PBM z-score against 500 random probes
NRC3_wobSeed42_DR1_G9A_o1 (dsDNA) DNA 1: GCTATACAAGGTCAAAGGCCAGAGTACGAATGTCGAGCGATTGACAGCGTAGAATGAAGG DNA 2: CCTTCATTCTACGCTGTCAATCGCTCGACATTCGTACTCTGGCCTTTGACCTTGTATAGC | – | – | 7.02 PBM z-score against 500 random probes | –
NRC3_random_hg19_332_o1 (dsDNA) DNA 1: GCTTGTCCTCAGCCTCCTGAGCAGCTGGGACTATAGGCGATTGACAGCGTAGAATGAAGG DNA 2: CCTTCATTCTACGCTGTCAATCGCCTATAGTCCCAGCTGCTCAGGAGGCTGAGGACAAGC | -1.23 PBM z-score against 500 random probes | -1.03 PBM z-score against 500 random probes | – | binding signal (FXR:RXRa): -0.13 PBM z-score against 500 random probes
NRC3_wobSeed45_DR1_A14T_o1 (dsDNA) DNA 1: GCTGTCAAAGTTCTAAGGTAACGTAAGTATCCACACGCGATTGACAGCGTAGAATGAAGG DNA 2: CCTTCATTCTACGCTGTCAATCGCGTGTGGATACTTACGTTACCTTAGAACTTTGACAGC | 0.4 PBM z-score against 500 random probes | – | – | binding signal (RXRa): 0.38 PBM z-score against 500 random probes; binding signal (RARg:RXRa): 0.41 PBM z-score against 500 random probes
NRC3_wobSeed45_DR1_G4A_o1 (dsDNA) DNA 1: GCTATCAAAGTTCAAAGGTAACGTAAGTATCCACACGCGATTGACAGCGTAGAATGAAGG DNA 2: CCTTCATTCTACGCTGTCAATCGCGTGTGGATACTTACGTTACCTTTGAACTTTGATAGC | – | – | 7.29 PBM z-score against 500 random probes | –
NRC3_random_hg19_165_o1 (dsDNA) DNA 1: GCTGAGTCCCTGCACTAGTCGGTTTGAGCTGCTTGTGCGATTGACAGCGTAGAATGAAGG DNA 2: CCTTCATTCTACGCTGTCAATCGCACAAGCAGCTCAAACCGACTAGTGCAGGGACTCAGC | -0.66 PBM z-score against 500 random probes | – | – | binding signal (RXRa): -1.2 PBM z-score against 500 random probes
NRC3_wobSeed114_DR4_G9A_o1 (dsDNA) DNA 1: GCAATACAAGGTCATCGTAGGCCAGAGTACGCACAGGCGATTGACAGCGTAGAATGAAGG DNA 2: CCTTCATTCTACGCTGTCAATCGCCTGTGCGTACTCTGGCCTACGATGACCTTGTATTGC | – | – | 7.16 PBM z-score against 500 random probes | –
NRC3_random_hg19_225_o1 (dsDNA) DNA 1: GCTGGATGAAGTGGAAGAACAAGGCTATTCTTTACTGCGATTGACAGCGTAGAATGAAGG DNA 2: CCTTCATTCTACGCTGTCAATCGCAGTAAAGAATAGCCTTGTTCTTCCACTTCATCCAGC | -0.34 PBM z-score against 500 random probes | – | – | binding signal (RXRa): -0.39 PBM z-score against 500 random probes; binding signal (RARg:RXRa): 0.01 PBM z-score against 500 random probes
NRC3_random_hg19_480_o1 (dsDNA) DNA 1: GCGAGAATGGTCAGTACATTCAACCATGAATTCAAGGCGATTGACAGCGTAGAATGAAGG DNA 2: CCTTCATTCTACGCTGTCAATCGCCTTGAATTCATGGTTGAATGTACTGACCATTCTCGC | -0.32 PBM z-score against 500 random probes | 0.03 PBM z-score against 500 random probes | – | –
NRC3_wobSeed97_DR4_G16A_o1 (dsDNA) DNA 1: GCCAAACTAGGTCACAAAAGGTCAAAGTCGAATGACGCGATTGACAGCGTAGAATGAAGG DNA 2: CCTTCATTCTACGCTGTCAATCGCGTCATTCGACTTTGACCTTTTGTGACCTAGTTTGGC | – | – | 8.65 PBM z-score against 500 random probes | –
NRC3_wobSeed86_DR3_o1 (dsDNA) DNA 1: GCGCTGCTAGGTCAGGTTGGTCAGCTAACGGGTACGGCGATTGACAGCGTAGAATGAAGG DNA 2: CCTTCATTCTACGCTGTCAATCGCCGTACCCGTTAGCTGACCAACCTGACCTAGCAGCGC | 0.46 PBM z-score against 500 random probes | 0.5 PBM z-score against 500 random probes | – | –
